Measurements as given in publication PMC8664259.

T1: TAF7 (WT) (UniProt Q15545 1-349)
T1 sequence: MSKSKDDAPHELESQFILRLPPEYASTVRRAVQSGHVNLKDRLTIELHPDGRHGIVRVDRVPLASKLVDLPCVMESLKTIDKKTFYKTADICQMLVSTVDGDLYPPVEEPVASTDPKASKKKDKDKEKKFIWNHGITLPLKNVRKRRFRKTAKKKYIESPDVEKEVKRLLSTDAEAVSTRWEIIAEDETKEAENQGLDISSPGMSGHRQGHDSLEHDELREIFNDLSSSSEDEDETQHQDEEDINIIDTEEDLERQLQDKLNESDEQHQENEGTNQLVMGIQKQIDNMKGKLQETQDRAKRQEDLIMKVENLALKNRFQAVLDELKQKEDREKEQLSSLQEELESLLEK


Biological target: T1, TAF7 (WT)
Assay: EMSA

| Binder | binding result |
| --- | --- |
| GGCAGAAAGGAGCAUUGGAGCUCUCUGCC (structured_RNA) [TARmut RNA] | no binding |
| GGCAGAUCUGAGCCUGGGAGCUCUCUGCC (structured_RNA) [HIV-1 TAR RNA] | binds |
